Assay results as given in US20170051072A1.

Tests used:
[1] = molecular target: human mesothelin with His-tag (R&D Systems) (human) (UniProt Q13421); assay: ELISA, IgG on captured His-huMesothelin (R&D)
[2] = molecular target: human mesothelin with His-tag (in house) (human) (UniProt Q13421); assay: ELISA, IgG on captured His-huMesothelin (in house)
Chain of human mesothelin with His-tag (in house) (human) (Q13421 other isoform, or with tags, fused parts or gaps limits assumed): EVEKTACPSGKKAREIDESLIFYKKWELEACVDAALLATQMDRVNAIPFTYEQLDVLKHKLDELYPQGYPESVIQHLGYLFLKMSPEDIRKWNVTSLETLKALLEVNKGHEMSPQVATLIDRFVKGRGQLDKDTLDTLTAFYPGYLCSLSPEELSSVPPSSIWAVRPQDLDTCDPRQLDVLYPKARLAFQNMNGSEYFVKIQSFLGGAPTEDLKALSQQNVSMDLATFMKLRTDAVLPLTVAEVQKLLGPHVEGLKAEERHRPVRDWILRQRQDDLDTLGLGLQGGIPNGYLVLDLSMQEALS

Chain of human mesothelin with His-tag (R&D Systems) (human) (Q13421 other isoform, or with tags, fused parts or gaps limits assumed): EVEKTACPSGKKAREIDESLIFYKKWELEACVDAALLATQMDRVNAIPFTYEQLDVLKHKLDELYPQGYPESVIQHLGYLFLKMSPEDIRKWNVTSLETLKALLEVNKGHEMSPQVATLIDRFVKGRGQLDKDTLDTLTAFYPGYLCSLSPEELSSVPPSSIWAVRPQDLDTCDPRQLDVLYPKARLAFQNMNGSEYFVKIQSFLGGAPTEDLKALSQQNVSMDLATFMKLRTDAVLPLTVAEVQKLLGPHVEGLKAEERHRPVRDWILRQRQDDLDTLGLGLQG

For “IgG VH HC_SS1/15436 + VL LC_SS1/15455 (antibody)”, the EC50 [1] was 0.0461 µg/mL and the EC50 [2] was 0.0411 µg/mL.
